Literature values as cited in paper PMC8480781.

Columns and labels:
[1] = target: Glu66 (UniProt position 148, FTKKMEENAKK); test: stability; details: PHS V66E; state not stated
[2] = target: Lys66 (UniProt position 148, FTKKMKENAKK); test: potentiometry; details: PHS V66K; state not stated

Row | Substance | pKa [1] | pKa [2]
1 | Staphylococcal nuclease PHS V66E (Staphylococcus aureus; P117G;H124L;S128A;V66E) | 8.73–9.28 | –
2 | Staphylococcal nuclease PHS V66K (Staphylococcus aureus; P117G;H124L;S128A;V66K) | – | 6.25–6.45
